Here are results for 10 molecules from patent US12065466B2, “Methods and compositions for protein sequencing” (Quantum-Si Incorporated, priority 2020, dated 2024).

To fix the notation:
B1: PS553: PS372-homologous ClpS protein, SEQ ID NO: 67 (protein, listed as Planctomycetes bacterium)
chain: MPASASAVTEPPVSLPEAAAPRPKDRPKRQPRYHVILWNDDDHTYQYVVAMLRQLFGHPPEKGFTLAKQVDKDGRVVVLTTTKEHAELKRDQIHAFGADRLLARSKGSMSASIEPEASTG
B2: PS559: PS372-homologous ClpS protein, SEQ ID NO: 73 (protein, listed as Planctomycetaceae bacterium)
chain: MNQAAISPNPDIKPNPSTHKKRASQRQPRYHVILWNDNDHTYHYVVTMLQKLFGHPPRTGIKMATEVDKKGKVIVLTTSREHAELKRDQIHAFGADKLIRRSKGAMAASIEPES
B3: PS551: PS372-homologous ClpS protein, SEQ ID NO: 65 (protein, listed as Rubrobacter indicoceani)
chain: MPSAAPAKPKTKRQSRTQGMPPYNVVLLDDDDHTYGYVIEMLNKVFGHPPEKGFELATEVDKNGRVIVMTTNLEVAELKRDEVHAFGPDPLMPRSKGSMSAVVERAG
B4: PS550: PS372-homologous ClpS protein, SEQ ID NO: 64 (protein, listed as Planctomycetes bacterium)
chain: MPTFTEPEVVNDTRILPPYHVILLNDDDHTYEYVIHMLQTLFGHPQERGFQLAVEVDKKGKAIVFTTSKEHAEFKRDQIHAFGADPLSSKNCKGSMSAVIEPSF
B5: PS554: PS372-homologous ClpS protein, SEQ ID NO: 68 (protein, listed as Planctomycetes bacterium)
chain: MSDSASATVEVQADPPADATARSQPTPARSTGSKPKRQPRYHVVLWNDDDHTYEYVIAMLRRLFGIEPEKGFRIAEEVDQSGRAVVLTTTREHAELKRDQIHAFGADRLLARSKGSMSASIEPEA
B6: PS555: PS372-homologous ClpS protein, SEQ ID NO: 69 (protein)
chain: MADSAQTGVAEPIQETLRRRKLRDDRRPKRQPPYHVILWNDNDHTYAYVVVMLMQLFGYPAEKGYQLASEVDTQGRAVVLTTTKEHAELKRDQIHAYGKDGLIEKCKGSMWATIEPAPGE
modifications: Planctomycetes bacterium RBG_16_64_12
B7: PS560: PS372-homologous ClpS protein, SEQ ID NO: 74 (protein, listed as Planctomycetes bacterium)
chain: MTETITTPAERTQTQAEPRSDRAWLWNVVLLDDDEHTYEYVIRMLHTLFGMPVERAFRLAEEVDARGRAVVLTTHKEHAELKRDQVHAFGKDALIASCAGSMSAVLEPAECGSDDED
B8: PS558: PS372-homologous ClpS protein, SEQ ID NO: 72 (protein, listed as Planctomycetes bacterium)
chain: MTATTADPDRTTAEKTTKKARRSGQPKRQPRYHVILWNDNDHTYQYVVAMLQQLFGHPATTGLKLATEVDRTGRAVILTTTREHAELKRDQIHAFGADRLLARSKGAMSASIEPEAE
B9: PS552: PS372-homologous ClpS protein, SEQ ID NO: 66 (protein)
chain: MSKTSTLPEVESESAQKLKYQPPYHVILLNDDDHSYVYVITMLKELFGHPEQKGYQLADAVDKQGRAIVFTTTREHAELKQEQIHAYGPDPTIPRCKGAMTAVIEPAE
modifications: Fimbriiglobus ruber
B10: PS556: PS372-homologous ClpS protein, SEQ ID NO: 70 (protein, listed as Blastopirellula marina)
chain: MGDSNTSVAEPGEVTVVTTKPAPKKAKPKRQPKYHVVLWNDDDHTYEYVILMMHELFGHPVEKGFQIAKTVDADGRAICLTTTKEHAELKRDQIHAYGKDELIARCRGSMSSTIEPEC

This experiment has as its system amino acid at a terminal position of a polypeptide. The experiment is described as follows: Amino acid binding preference of recognition proteins (Tables 1 and 2). The note with it: Table 1, ClpS proteins; amino acid identity at a terminal position of a polypeptide; inferred from literature and/or demonstrated by the inventors. From the text: It should be appreciated that these sequences and other examples described herein are meant to be non-limiting, and recognition molecules in accordance with the application can include any homologs, variants thereof, or fragments thereof minimally containing domains or subdomains responsible for peptide recognition.
Regarding B1, the “Binding Pref.” value is “I, L, V”.

For the molecule B2, the “Binding Pref.” value is “I, L, V”.

On to B3, for which the “Binding Pref.” value is “I, L, V”.

Turning to B4, the “Binding Pref.” value is given as “I, L, V”.

Regarding B5, the “Binding Pref.” value was “I, L, V”.

B6: the “Binding Pref.” value is “I, L, V”.

Take B7: the “Binding Pref.” value is listed as “I, L, V”.

As to B8, the “Binding Pref.” value was “I, L, V”.

B9: the “Binding Pref.” value is listed as “I, L, V”.

In the case of B10, the “Binding Pref.” value was “I, L, V”.
